The assay concerns the target T1, Angiotensin-converting enzyme 2 (ACE2) (UniProt Q9BYF1 18-805, glycosylation moieties seen in the map).
T1 construct: source: co-transfected in HEK-293T cells for the current recordings
The assay can be described thus: cryo-EM structure; ACE2-SIT1 complex bound to Pro, 3.3 Å overall (transmembrane domain 3.7 Å local). As to conditions: both partners purified.

T1 sequence (Q9BYF1 18-805): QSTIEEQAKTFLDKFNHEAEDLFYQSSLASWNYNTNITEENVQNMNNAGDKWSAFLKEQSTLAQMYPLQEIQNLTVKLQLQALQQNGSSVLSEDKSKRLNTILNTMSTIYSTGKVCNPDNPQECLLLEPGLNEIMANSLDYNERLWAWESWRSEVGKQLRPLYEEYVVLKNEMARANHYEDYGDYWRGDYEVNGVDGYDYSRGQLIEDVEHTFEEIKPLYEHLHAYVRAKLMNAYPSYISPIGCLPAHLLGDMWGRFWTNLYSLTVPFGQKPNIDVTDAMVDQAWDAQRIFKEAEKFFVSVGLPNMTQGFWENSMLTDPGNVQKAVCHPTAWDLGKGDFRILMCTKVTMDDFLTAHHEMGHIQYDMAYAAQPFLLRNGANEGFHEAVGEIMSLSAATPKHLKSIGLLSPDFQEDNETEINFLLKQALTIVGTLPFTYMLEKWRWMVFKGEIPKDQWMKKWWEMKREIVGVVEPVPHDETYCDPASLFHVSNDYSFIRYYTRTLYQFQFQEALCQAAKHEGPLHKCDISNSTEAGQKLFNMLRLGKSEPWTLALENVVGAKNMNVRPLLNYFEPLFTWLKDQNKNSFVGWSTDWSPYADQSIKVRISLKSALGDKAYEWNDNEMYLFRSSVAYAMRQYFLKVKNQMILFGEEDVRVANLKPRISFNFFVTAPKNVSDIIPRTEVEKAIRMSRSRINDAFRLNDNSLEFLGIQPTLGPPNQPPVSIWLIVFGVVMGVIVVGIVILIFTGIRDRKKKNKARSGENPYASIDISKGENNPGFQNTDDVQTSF

B1: SIT1 (SLC6A20) (natural protein)
chain: MEKARPLWANSLQFVFACISYAVGLGNVWRFPYLCQMYGGGSFLVPYIIMLIVEGMPLLYLELAVGQRMRQGSIGAWRTISPYLSGVGVASVVVSFFLSMYYNVINAWAFWYLFHSFQDPLPWSVCPLNGNHTGYDEECEKASSTQYFWYRKTLNISPSLQENGGVQWEPALCLLLAWLVVYLCILRGTESTGKVVYFTASLPYCVLIIYLIRGLTLHGATNGLMYMFTPKIEQLANPKAWINAATQIFFSLGLGFGSLIAFASYNEPSNNCQKHAIIVSLINSFTSIFASIVTFSIYGFKATFNYENCLKKVSLLLTNTFDLEDGFLTASNLEQVKGYLASAYPSKYSEMFPQIKNCSLESELDTAVQGTGLAFIVYTEAIKNMEVSQLWSVLYFFMLLMLGIGSMLGNTAAILTPLTDSKIISSHLPKEAISGLVCLVNCAIGMVFTMEAGNYWFDIFNDYAATLSLLLIVLVETIAVCYVYGLRRFESDLKAMTGRAVSWYWKVMWAGVSPLLIVSLFVFYLSDYILTGTLKYQAWDASQGQLVTKDYPAYALAVIGLLVASSTMCIPLAALGTFVQRRLKRGDADPVA
notes: also called WT; source: co-transfected in HEK-293T cells for the current recordings
On to B1, for which the binding result is on record as “binds”.

The record behind these values is PMC10491607 (Cell Discovery, 2023).
